From patent US20220177587A1, “METHODS AND USES OF VARIANT CD80 FUSION PROTEINS AND RELATED CONSTRUCTS” (Alpine Immune Sciences, Inc., priority 2018, published 2022)
Where a chain is given by its changes, count along the chain named. Numbers in names are those of the source.

B1: CD80 A12V/S15F/Y31H/M38L/T41G/M43L/D90N/T130A/P137L/N149D/N152T ECD-Fc (Fc fusion)
chain: VIHVTKEVKEVVTLFCGHNVSVEELAQTRIHWQKEKKLVLGMLSGDMNIWPEYKNRTIFDITNNLSIVILALRPSDEGTYECVVLKYEKNAFKREHLAEVTLSVKADFPTPSISDFEIPTSNIRRIICSASGGFPELHLSWLENGEELDAITTTVSQDPETELYAVSSKLDFNMTTNHSFMCLIKYGHLRVNQTFNWNTTKQEHFPDN
B2: CD80 L70Q/A91G/T110A/I118V/T120S/T130A ECD-Fc (Fc fusion)
chain: VIHVTKEVKEVATLSCGHNVSVEELAQTRIYWQKEKKMVLTMMSGDMNIWPEYKNRTIFDITNNLSIVIQALRPSDEGTYECVVLKYEKDGFKREHLAEVTLSVKADFPAPSISDFEVPSSNIRRIICSASGGFPEPHLSWLENGEELNAINTTVSQDPETELYAVSSKLDFNMTTNHSFMCLIKYGHLRVNQTFNWNTTKQEHFPDN
B3: CD80 K36G/K37Q/M38I/L40M ECD-Fc (Fc fusion)
chain: B2 chain with K36G, K37Q, M38I, L40M, Q70L, G91A, A110T, V118I, S120T, A130T
B4: CD80 V22A/L70Q/S121P ECD-Fc (Fc fusion)
chain: B2 chain with V22A, G91A, A110T, V118I, S120T, S121P, A130T
B5: CD80 A91G/F92L/F108L/I118V/T120S ECD-Fc (Fc fusion)
chain: B2 chain with Q70L, F92L, F108L, A110T, A130T
B6: CD80 I67F/L70R/E88G/A91G/I118V/T120S/T130A ECD-Fc (Fc fusion)
chain: B2 chain with I67F, Q70R, E88G, A110T
B7: CD80 R29V/M43Q/E81R/L85I/K89R/D90L/A91E/F92N/K93Q/R94G ECD-Fc (Fc fusion)
chain: VIHVTKEVKEVATLSCGHNVSVEELAQTVIYWQKEKKMVLTMQSGDMNIWPEYKNRTIFDITNNLSIVILALRPSDEGTYRCVVIKYERLENQGEHLAEVTLSVKADFPTPSISDFEIPTSNIRRIICSTSGGFPEPHLSWLENGEELNAINTTVSQDPETELYAVSSKLDFNMTTNHSFMCLIKYGHLRVNQTFNWNTTKQEHFPDN
B8: CD80 E24G/R29D/Y31L/Q33H/K36G/M38I/T41A/M43R/M47T/F59L/E81V/L85R/K89N/A91T/F92P/K93V/R94L/H96R/N149S/C182S ECD-Fc (Fc fusion)
chain: VIHVTKEVKEVATLSCGHNVSVEGLAQTDILWHKEGKIVLAMRSGDTNIWPEYKNRTILDITNNLSIVILALRPSDEGTYVCVVRKYENDTPVLERLAEVTLSVKADFPTPSISDFEIPTSNIRRIICSTSGGFPEPHLSWLENGEELSAINTTVSQDPETELYAVSSKLDFNMTTNHSFMSLIKYGHLRVNQTFNWNTTKQEHFPDN
B9: variant CD80 IgV-Fc (inert) H18Y/E35D/M47V/V68M/A71G (Fc fusion)
chain: VIHVTKEVKEVATLSCGYNVSVEELAQTRIYWQKDKKMVLTMMSGDVNIWPEYKNRTIFDITNNLSIMILGLRPSDEGTYECVVLKYEKDAFKREHLAEVTLSVKAD
B10: variant CD80 IgV-Fc (inert) H18C/A26P/E35D/M47L/V68M/A71G (Fc fusion)
chain: B9 chain with Y18C, A26P, V47L
B11: variant CD80 IgV-Fc (inert) H18V/A26Q/E35D/M47V/V68L/A71G/D90G (Fc fusion)
chain: B9 chain with Y18V, A26Q, M68L, D90G
B12: variant CD80 IgV-Fc (inert) H18V/E35D/M47V/V68M/A71G/D90G (Fc fusion)
chain: B9 chain with Y18V, D90G
B13: variant CD80 IgV-Fc (inert) H18Y/A26P/E35D/M47I/V68M/A71G (Fc fusion)
chain: B9 chain with A26P, V47I
B14: variant CD80 IgV-Fc (inert) H18V/A26K/E35D/M47L/V68M/A71G (Fc fusion)
chain: B9 chain with Y18V, A26K, V47L
B15: variant CD80 IgV-Fc (inert) H18I/A26P/E35D/M47V/V68M/A71G (Fc fusion)
chain: B9 chain with Y18I, A26P
B16: variant CD80 IgV-Fc (inert) H18Y/E35D/M47V/V68L/A71G/D90G (Fc fusion)
chain: B9 chain with M68L, D90G
B17: variant CD80 IgV-Fc (inert) H18T/A26N/E35D/M47L/V68M/A71G (Fc fusion)
chain: B9 chain with Y18T, A26N, V47L
B18: variant CD80 IgV-Fc (inert) H18V/A26D/E35D/M47V/V68M/A71G/D90G (Fc fusion)
chain: B9 chain with Y18V, A26D, D90G

Target: human CTLA-4 (human) (UniProt P16410)
Experiment: flow cytometry, Expi293F cells transfected with CTLA-4

Sequence of human CTLA-4 (human) (P16410 36-223): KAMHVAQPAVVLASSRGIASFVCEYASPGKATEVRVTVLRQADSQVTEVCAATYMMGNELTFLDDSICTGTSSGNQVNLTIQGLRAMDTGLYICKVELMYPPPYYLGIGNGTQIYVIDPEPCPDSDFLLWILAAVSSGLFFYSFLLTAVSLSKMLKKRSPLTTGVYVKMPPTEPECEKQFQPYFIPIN

Row | MFI [MFI] | parental ratio | Binder
1 | 6 | 0.03 | B1
2 | 14 | 0.07 | B2
3 | 1400 | 0.03 | B3
4 | 7 | 0.04 | B4
5 | 128 | 0.61 | B5
6 | 6 | 0.03 | B6
7 | 996 | 0.02 | B7
8 | 1020 | 0.02 | B8

Target: human CTLA-4 (human) (UniProt P16410)
Experiment: flow cytometry, CHO cells stably expressing CTLA4

Row | MFI at 33.3 nM [MFI] | Binder
9 | 23600 | B9
10 | 23400 | B10
11 | 17700 | B11
12 | 16800 | B12
13 | 12200 | B13
14 | 22900 | B14
15 | 21900 | B15
16 | 16500 | B16
17 | 20900 | B17
18 | 22100 | B18

Target: CD28 (human) (UniProt P10747)
Experiment: flow cytometry, Jurkat cells (CD28); MFI over CD80 WT IgV-Fc

Row | Fold change to WT CD80 [fold] | Binder
19 | 31.6 | B9
20 | 18.7 | B10
21 | 30.6 | B11
22 | 20.7 | B12
23 | 50.2 | B13
24 | 35.7 | B14
25 | 25.2 | B15
26 | 25 | B16
27 | 13.4 | B17
28 | 61.3 | B18

Target: human PD-L1 (human) (UniProt Q9NZQ7)
Experiment: flow cytometry, CHO/PD-L1 cells; MFI over CD80 WT IgV-Fc

Sequence of human PD-L1 (human) (Q9NZQ7 19-290): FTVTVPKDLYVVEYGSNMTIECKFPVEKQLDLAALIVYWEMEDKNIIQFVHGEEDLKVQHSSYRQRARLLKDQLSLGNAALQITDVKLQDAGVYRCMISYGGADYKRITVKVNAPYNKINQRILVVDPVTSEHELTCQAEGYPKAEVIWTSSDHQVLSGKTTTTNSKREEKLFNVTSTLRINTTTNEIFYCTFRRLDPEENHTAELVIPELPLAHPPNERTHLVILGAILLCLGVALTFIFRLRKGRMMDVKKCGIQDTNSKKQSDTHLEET

Row | Fold change to WT CD80 [fold] | Binder
29 | 393 | B9
30 | 406 | B10
31 | 204 | B11
32 | 264 | B12
33 | 330 | B13
34 | 408 | B14
35 | 393 | B15
36 | 290 | B16
37 | 415 | B17
38 | 409 | B18

Target: human CTLA-4 (human) (UniProt P16410)
Experiment: flow cytometry, CHO/CTLA4 cells; MFI over CD80 WT IgV-Fc

Row | Fold change to WT CD80 [fold] | Binder
39 | 17.1 | B9
40 | 16.9 | B10
41 | 12.8 | B11
42 | 12.1 | B12
43 | 8.8 | B13
44 | 16.6 | B14
45 | 15.8 | B15
46 | 11.9 | B16
47 | 15.1 | B17
48 | 16 | B18

Target: CD28 (human) (UniProt P10747)
Experiment: flow cytometry, Jurkat cells (CD28)

Row | MFI at 33.3 nM [MFI] | Binder
49 | 3230 | B9
50 | 1910 | B10
51 | 3130 | B11
52 | 2120 | B12
53 | 5120 | B13
54 | 3640 | B14
55 | 2570 | B15
56 | 2550 | B16
57 | 1370 | B17
58 | 6250 | B18

Target: human PD-L1 (human) (UniProt Q9NZQ7)
Experiment: flow cytometry, Expi293F cells transfected with PD-L1

Row | MFI [MFI] | parental ratio | Binder
59 | 5 | 0.08 | B1
60 | 5 | 0.07 | B2
61 | 959 | 0.05 | B3
62 | 5 | 0.07 | B4
63 | 16 | 0.11 | B5
64 | 6 | 0.08 | B6
65 | 1580 | 0.09 | B7
66 | 1120 | 0.06 | B8

Target: human PD-L1 (human) (UniProt Q9NZQ7)
Experiment: flow cytometry, CHO cells stably expressing PD-L1

Row | MFI at 33.3 nM [MFI] | Binder
67 | 64900 | B9
68 | 67000 | B10
69 | 33600 | B11
70 | 43600 | B12
71 | 54500 | B13
72 | 67300 | B14
73 | 64900 | B15
74 | 47900 | B16
75 | 68500 | B17
76 | 67500 | B18

Target: CD28 (human) (UniProt P10747)
Experiment: flow cytometry, Expi293F cells transfected with CD28

Row | MFI [MFI] | parental ratio | Binder
77 | 6 | 0.06 | B1
78 | 8 | 0.09 | B2
79 | 1170 | 0.09 | B3
80 | 5 | 0.06 | B4
81 | 50 | 0.53 | B5
82 | 5 | 0.05 | B6
83 | 1030 | 0.08 | B7
84 | 1070 | 0.08 | B8
